# In paper PMC8571072:
# Where “and” joins values, the source holds several entries; their conditions need not be identical. Equal entries are not always repeated.
# Target: intelectin-2 (Xenopus laevis (endogenous in egg extract))
# Assay: cryo-EM structure
substance,measurement,value
intelectin-2 (natural protein),stoichiometry N,3 and 6
